Assay [1] deals with T1, cynomolgus monkey C2 (cynomolgus monkey, UniProt G8F3W0 21-752).
T1 construct: also called cyno C2
T1 sequence: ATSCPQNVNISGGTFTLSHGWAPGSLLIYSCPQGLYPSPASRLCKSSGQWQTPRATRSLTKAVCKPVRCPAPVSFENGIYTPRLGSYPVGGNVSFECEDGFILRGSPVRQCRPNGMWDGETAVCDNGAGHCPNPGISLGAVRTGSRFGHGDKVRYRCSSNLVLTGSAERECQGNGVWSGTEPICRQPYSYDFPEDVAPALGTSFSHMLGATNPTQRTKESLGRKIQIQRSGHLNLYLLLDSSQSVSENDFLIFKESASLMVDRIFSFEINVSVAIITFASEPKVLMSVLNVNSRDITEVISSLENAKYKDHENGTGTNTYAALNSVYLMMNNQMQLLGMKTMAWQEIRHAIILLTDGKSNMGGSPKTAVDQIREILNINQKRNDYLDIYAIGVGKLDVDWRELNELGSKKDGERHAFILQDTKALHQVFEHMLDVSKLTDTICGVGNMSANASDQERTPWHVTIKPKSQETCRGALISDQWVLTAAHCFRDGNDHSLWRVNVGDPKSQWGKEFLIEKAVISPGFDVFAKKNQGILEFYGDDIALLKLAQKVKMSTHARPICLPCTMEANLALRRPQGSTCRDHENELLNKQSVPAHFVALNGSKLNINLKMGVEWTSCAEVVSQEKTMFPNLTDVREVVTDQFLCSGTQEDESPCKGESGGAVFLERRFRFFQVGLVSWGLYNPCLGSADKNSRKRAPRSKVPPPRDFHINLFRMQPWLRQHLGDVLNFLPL
In words: SPR, mAb captured, cyno C2 analyte, pH 6.0.
Description: (§1) Surface plasmon resonance (SPR, Biacore) was used for all binding affinity analyses. In brief, goat anti-human IgG was directly immobilised onto the carboxymethyl dextran surface of CM5 sensorchips to approximately 12,000 RU using standard NHS/EDC chemistry at pH 5. The immobilised antibody surface was pre-conditioned with ten injections of polyclonal human IgG (Privigen 60 s) prepared at 1 μg/mL. Ligands (anti-C2 mAbs) were captured at the beginning of each cycle as described below. An adjacent spot or flow cell in which only Polyclonal IgG was capture was used as a reference surface. The goat anti-human IgG Fc antibody surface was regenerate in 100 mM H3PO4, injected for 45 seconds at the end of each cycle. Experiments were performed at 37° C. and the flow rate of each experiment was kept constant at 30 μL/min.
(§2) In addition to human C2, the pH dependent anti-C2 antibodies were also tested for their ability to bind to C2 from other mammalian species using the SPR methods described above in order to identify suitable surrogate species for in vivo testing. The antibodies were tested for binding at neutral pH against C2 from cynomolgus monkeys, mice, dogs, rabbits, rats, pigs, and sheep.

In assay [2] the target is T1, cynomolgus monkey C2. In words: cell-based or functional assay.
The target of assay [3] is T2, human complement C2 (human, UniProt P06681 21-752).
T2 construct: Recombinant full-length human C2 with C-terminal 8x His tag, purified from Expi293F supernatant; also called human C2; huC2
T2 sequence: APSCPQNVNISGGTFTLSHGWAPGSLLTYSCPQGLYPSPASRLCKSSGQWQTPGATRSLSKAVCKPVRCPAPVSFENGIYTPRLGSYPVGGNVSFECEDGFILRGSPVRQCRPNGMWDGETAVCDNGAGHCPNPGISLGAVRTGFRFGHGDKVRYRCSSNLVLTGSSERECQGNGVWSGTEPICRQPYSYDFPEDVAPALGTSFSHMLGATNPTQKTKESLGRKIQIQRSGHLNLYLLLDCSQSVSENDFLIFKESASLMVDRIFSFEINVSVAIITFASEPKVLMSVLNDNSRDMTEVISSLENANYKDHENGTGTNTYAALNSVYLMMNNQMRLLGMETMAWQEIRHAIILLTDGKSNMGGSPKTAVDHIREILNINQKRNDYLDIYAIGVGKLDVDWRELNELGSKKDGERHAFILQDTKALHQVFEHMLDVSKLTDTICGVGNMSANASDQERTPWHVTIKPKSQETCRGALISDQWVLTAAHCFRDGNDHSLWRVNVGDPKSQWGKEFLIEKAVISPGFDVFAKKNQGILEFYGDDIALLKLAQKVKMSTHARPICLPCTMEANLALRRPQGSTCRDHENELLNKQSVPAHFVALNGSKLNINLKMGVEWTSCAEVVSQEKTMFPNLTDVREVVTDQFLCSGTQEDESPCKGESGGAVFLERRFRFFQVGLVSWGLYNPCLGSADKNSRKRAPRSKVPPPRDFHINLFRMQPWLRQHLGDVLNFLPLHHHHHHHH
Description: SPR, mAb captured, C2 analyte, MHAs buffer, pH 7.3.
Description: as §1
(§3) This buffer contains ammonium sulfate instead of sodium chloride.

Assay [4] deals with T2, human complement C2. Description: cell-based or functional assay.
Assay [5] has as its target T1, cynomolgus monkey C2. In words: cell-based or functional assay. The source holds these as a separate data set.
A further assay concerns the target T3, mouse C2 (mouse, UniProt P21180 19-760, limits assumed).
T3 sequence (looked up): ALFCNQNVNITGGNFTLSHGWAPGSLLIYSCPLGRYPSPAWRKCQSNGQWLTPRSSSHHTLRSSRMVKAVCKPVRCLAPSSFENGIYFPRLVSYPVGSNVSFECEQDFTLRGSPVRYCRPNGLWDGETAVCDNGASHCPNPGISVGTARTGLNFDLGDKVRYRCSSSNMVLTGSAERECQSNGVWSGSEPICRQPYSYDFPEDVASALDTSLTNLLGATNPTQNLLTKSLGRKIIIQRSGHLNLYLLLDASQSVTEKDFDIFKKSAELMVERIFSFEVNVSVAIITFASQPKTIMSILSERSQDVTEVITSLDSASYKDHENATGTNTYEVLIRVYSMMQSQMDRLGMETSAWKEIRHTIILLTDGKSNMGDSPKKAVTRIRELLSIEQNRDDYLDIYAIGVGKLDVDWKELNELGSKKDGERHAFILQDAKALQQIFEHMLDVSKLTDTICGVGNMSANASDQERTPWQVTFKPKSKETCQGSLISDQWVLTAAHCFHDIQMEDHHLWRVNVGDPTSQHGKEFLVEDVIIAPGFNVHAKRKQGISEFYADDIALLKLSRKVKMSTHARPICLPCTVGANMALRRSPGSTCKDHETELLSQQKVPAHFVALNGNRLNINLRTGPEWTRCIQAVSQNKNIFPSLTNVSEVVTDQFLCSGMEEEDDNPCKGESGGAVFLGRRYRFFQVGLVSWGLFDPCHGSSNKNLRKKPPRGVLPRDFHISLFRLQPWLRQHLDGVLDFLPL
Description: SPR, mAb captured, mouse C2 analyte, pH 7.3.

The target in assay [6] is T2, human complement C2. In words: SPR, mAb captured, C2 analyte, HBS-EP, pH 7.3.
Description: as §1
(§4) The pH dependent anti-C2 antibodies and their germlined versions were tested for their affinity to C2 at pH 7.3 (neutral pH) and pH 6.0 (early endosome pH) using the SPR methods described above in HBS-EP buffer.
The target in assay [7] is T2, human complement C2. Description: SPR, mAb captured, C2 analyte, MHAs buffer, pH 5.8, steady state.
Description: as §1, §3
In assay [8] the target is T1, cynomolgus monkey C2. In words: SPR, mAb captured, cyno C2 analyte, pH 7.3.
The target of assay [9] is T2, human complement C2. In words: SPR, mAb captured, C2 analyte, MHAs buffer, pH 6.0, steady state.
Description: as §1, §3
The target of assay [10] is T2, human complement C2. Description: SPR, mAb captured, C2 analyte, HBS-EP, pH 6.0.
Description: as §1, §4

The source of these data is patent US20220332804A1 (CSL INNOVATION, published 2022).

Description for mouse C2: as §1, §2

B1: RF16-226 (antibody)
heavy: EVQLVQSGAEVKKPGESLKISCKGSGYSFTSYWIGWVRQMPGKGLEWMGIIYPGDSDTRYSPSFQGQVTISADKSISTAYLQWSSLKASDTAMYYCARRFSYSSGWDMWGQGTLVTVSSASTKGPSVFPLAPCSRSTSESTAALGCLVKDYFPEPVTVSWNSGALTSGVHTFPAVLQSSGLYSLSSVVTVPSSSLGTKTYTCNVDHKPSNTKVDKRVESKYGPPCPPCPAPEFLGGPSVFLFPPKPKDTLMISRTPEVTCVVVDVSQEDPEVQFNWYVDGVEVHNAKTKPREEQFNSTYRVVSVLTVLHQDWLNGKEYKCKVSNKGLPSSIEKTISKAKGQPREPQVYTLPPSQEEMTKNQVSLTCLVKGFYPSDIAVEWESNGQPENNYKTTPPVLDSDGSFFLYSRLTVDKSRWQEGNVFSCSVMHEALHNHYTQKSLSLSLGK
light: SYELTQPPSVSVSPGQTARITCSGDALTSKYVAWYQQKSGLAPLLVIYEDTRRPSGIPAKFSGSSSGSVATLTISGAHGDDEADYYCYSTDASGHQRVFGGGTKLTVLSQPKAAPSVTLFPPSSEELQANKATLVCLISDFYPGAVTVAWKADGSPVKAGVETTKPSKQSNNKYAASSYLSLTPEQWKSHRSYSCQVTHEGSTVEKTVAPTECS
For the molecule B1, the Kd with cynomolgus monkey C2 [1] was found to be 141 nM; with human complement C2 [3], 44 nM; with mouse C2 it was 160 nM; in the assay with human complement C2 [6], 11.6 nM; with human complement C2 [7], 5510 nM; with cynomolgus monkey C2 [8], 5.1 nM. Further, the values for the Kd in the assay with human complement C2 [9] and in the assay with human complement C2 [10] were 2230 nM and 114 nM, respectively. In addition, the “IC50, inhibition of cynomolgus classical complement pathway (Wieslab assay)” value with cynomolgus monkey C2 [2] was found to be 18.8 nM. Also, the “IC50, inhibition of cynomolgus lectin complement pathway (Wieslab assay)” value with cynomolgus monkey C2 [2] was 140 nM. Moreover, the “IC50, inhibition of human classical pathway (hemolysis assay)” value with human complement C2 [4] amounted to 284 nM. In the assay with cynomolgus monkey C2 [5], the “IC50, inhibition of cyno classical pathway (hemolysis assay), mean of three experiments” value turned out to be 124 nM.

B2: RF16-214 (antibody, V domains shown)
VH: EVQLLESGGGLVQPGGSLRLSCAASGFTFSWYQMMWVRQAPGKGLEWVSRIYPSGGGTAYADSVKGRFTISRDNSKNTLYLQMNSLRAEDTAVYYCARDAGYGDNWGQGTLVTVSS
VL: QSALTQPPSVSVSPGQTASITCSGDKLGEKYASWYQQKAGQSPVMVIYQDRKRPSGIPERFSGSNSGNTATLTISGTQAMDEADYYCQAWDTRAVVFGGGTKLTVLG
Regarding B2, the Kd with cynomolgus monkey C2 [1] worked out at 137 nM; in the assay with human complement C2 [3] it was 233 nM; with mouse C2, 885 nM; in the assay with human complement C2 [6], 31 nM; in the assay with human complement C2 [7], 4670 nM; in the assay with cynomolgus monkey C2 [8] it was 46.8 nM. Besides, the Kd with human complement C2 [9] amounted to 2170 nM; with human complement C2 [10], 148 nM. In addition, the “IC50, inhibition of cynomolgus classical complement pathway (Wieslab assay)” value with cynomolgus monkey C2 [2] stood at 134 nM. Moreover, the “IC50, inhibition of cynomolgus lectin complement pathway (Wieslab assay)” value with cynomolgus monkey C2 [2] turned out to be 362 nM. Besides, in the assay with human complement C2 [4], the “IC50, inhibition of human classical pathway (hemolysis assay)” value is 241 nM. In addition, the “IC50, inhibition of cyno classical pathway (hemolysis assay)” value with cynomolgus monkey C2 [5] was 630 nM.
